The record followed here is PMC8519905, “Reproducibility and accuracy of microscale thermophoresis in the NanoTemper Monolith: a multi laboratory benchmark study” (European Biophysics Journal, 2021).

Experiment [1] concerns the target T1, unlabeled lysozyme (Gallus gallus, UniProt P00698).
T1 construct: gene LYZ; native hen egg white lysozyme (mature chain, signal peptide removed), unlabelled; source printed for the stock used for labelling
The experiment in a line: label-free microscale thermophoresis (NT.LabelFree). The experiment is classed as binding. The note with it: unlabelled protein; buffer not printed in main text for this test.

The target in experiment [2] is T2, Lysozyme isolated from hen egg white, labeled with RED-NHS 2nd generation dye (Gallus gallus (hen egg white), UniProt P00698, RED-NHS 2nd generation dye, amine reactive; degree of labeling ~0.70).
T2 construct: lysozyme isolated from hen egg white (ROCHE Cat.No. 10837059001); also called labeled lysozyme; red labeled lysozyme; source: bought: ROCHE Cat.No. 10837059001 (isolated from hen egg white); labeled with the Monolith NT Protein Labeling Kit RED-NHS 2nd Generation
T2 sequence (P00698 19-147): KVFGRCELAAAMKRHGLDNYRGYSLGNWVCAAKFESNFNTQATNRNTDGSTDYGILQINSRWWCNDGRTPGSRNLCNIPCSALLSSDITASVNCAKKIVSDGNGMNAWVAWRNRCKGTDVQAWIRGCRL
Put plainly: MST; TRIC analysis of the MST/TRIC time trace; RED-NHS labeled lysozyme as target, nanobody as titrated ligand; PBS+ (10 mM phosphate pH 7.4, 2.7 mM KCl, 137 mM NaCl, 0.005% Tween-20); premium coated capillaries; triplicates on 40 Monolith NT.115/NT.Pico instruments; means over instruments; analysed centrally with MOAA and PALMIST (hot region 0.5-1.5 s) and individually by users; fitted without correction for the …. The settings on record: both partners purified.

Experiment [3] has as its target T2, Lysozyme isolated from hen egg white, …. The description is as above. The note with it: both partners purified. This is another data set of the same source.
The target is the same in experiment [4]. Put plainly: other fluorescence titration; analysis of the absolute (initial) fluorescence of the same Monolith datasets; RED-NHS labeled lysozyme as target, nanobody as titrated ligand; PBS+; triplicates on 40 instruments; means over instruments; analysed centrally with MOAA and PALMIST and by 8 of 40 users. The note with it: both partners purified.

Where “and” joins values, the source holds several entries; their conditions need not be identical. Equal entries are not always repeated.

T1 sequence (P00698 19-147): as above

In experiment [1], `CC(=O)N[C@H]1[C@H](O[C@H]2[C@H](O)[C@@H](NC(C)=O)C(O)O[C@@H]2CO)O[C@H](CO)[C@@H](O[C@@H]2O[C@H](CO)[C@@H](O)[C@H](O)[C@H]2NC(C)=O)[C@@H]1O` (stereo partly shown) [NAG3] displayed a Kd of approximately 4000 nM.

B1: anti-lysozyme nanobody: Cab-Lys3 with T101 of the CDR3 loop mutated to serine (VHH)
VHH: DVQLQASGGGSVQAGGSLRLSCAASGYTIGPYCMGWFRQAPGKEREGVAAINMGGGITYYADSVKGRFTISQDNAKNTVYLLMNSLEPEDTAIYYCAADSSIYASYYECGHGLSTGGYGYDSWGQGTQVTVSS
notes: parent chain is the VHH Cab-Lys3 (De Genst et al. 2002), with T101 in the CDR3 loop changed to serine; 14.2 kDa; also called NB; VHH; source: T7-Express E. coli (pET-22B), purified (Profinity IMAC, Superdex-75)
With B1, the Kd in experiment [2] was 1170 nM; in experiment [3], 111 nM and 119 nM and 76 nM; in experiment [4], 256 nM and 259 nM and 272 nM.

As usually defined, the Kd is the equilibrium constant for the complex coming apart. A higher Kd goes with weaker binding.
